System: peptide library, one residue held at a place counted from the S/T acceptor
Test: relative phosphorylation of the sub-library (ratio to the mean residue at this position); higher = residue favoured
Settings: human
Outline: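 Spots on streptavidin membranes were phosphorimaged and quantified by densitometry to measure phosphorylation of biotinylated degenerate peptide sub-libraries by purified recombinant kinases, human or orthologue constructs. The reactions ran in 384-well plates for 90 min under kinase-specific conditions, with peptides at 50 μM and 50 μM ATP spiked with γ-32P-ATP. Relative sub-library phosphorylation is the ratio to the mean residue at that position.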

Chain of MAPKAPK2, construct: Full length (P49137 whole entry, looked up): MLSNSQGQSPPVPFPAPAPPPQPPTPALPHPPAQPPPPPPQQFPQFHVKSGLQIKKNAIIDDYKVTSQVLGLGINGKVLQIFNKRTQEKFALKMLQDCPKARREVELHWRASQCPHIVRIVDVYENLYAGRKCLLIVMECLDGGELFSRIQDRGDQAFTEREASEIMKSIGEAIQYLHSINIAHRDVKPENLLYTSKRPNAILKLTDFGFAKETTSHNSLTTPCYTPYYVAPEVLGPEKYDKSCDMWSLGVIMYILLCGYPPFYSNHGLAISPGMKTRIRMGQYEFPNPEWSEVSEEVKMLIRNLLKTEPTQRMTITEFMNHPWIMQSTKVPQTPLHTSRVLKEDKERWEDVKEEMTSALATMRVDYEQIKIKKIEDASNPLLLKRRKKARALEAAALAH
Chain of CAMKK1, construct: aa124-411 (Q8N5S9 124-411, looked up): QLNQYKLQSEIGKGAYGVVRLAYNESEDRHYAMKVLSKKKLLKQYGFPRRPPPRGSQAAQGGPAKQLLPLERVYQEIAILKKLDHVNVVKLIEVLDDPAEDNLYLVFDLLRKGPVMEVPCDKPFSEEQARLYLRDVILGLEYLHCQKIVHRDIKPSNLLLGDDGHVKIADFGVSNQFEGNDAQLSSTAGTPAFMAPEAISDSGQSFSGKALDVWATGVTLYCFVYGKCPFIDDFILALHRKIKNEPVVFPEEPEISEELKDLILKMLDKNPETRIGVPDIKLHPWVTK
Chain of CAMKK2, construct: Full length (Q96RR4 whole entry, looked up): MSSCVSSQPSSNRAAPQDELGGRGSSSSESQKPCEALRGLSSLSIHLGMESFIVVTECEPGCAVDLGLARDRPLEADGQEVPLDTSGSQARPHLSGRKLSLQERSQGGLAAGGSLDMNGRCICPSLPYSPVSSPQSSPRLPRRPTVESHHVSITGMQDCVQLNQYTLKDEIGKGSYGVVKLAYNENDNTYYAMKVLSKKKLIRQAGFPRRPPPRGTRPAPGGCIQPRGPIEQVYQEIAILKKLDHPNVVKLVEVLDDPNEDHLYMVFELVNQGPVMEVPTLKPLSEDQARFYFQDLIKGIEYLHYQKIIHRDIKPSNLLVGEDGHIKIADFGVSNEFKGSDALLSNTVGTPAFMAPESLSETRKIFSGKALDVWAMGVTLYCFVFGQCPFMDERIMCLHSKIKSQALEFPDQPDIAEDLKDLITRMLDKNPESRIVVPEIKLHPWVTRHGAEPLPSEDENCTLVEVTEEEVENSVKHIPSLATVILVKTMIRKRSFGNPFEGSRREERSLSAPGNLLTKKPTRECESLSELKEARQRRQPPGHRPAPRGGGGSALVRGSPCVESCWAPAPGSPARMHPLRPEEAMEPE
Chain of HIPK2, construct: aa153-564 (Q9H2X6 153-564, looked up): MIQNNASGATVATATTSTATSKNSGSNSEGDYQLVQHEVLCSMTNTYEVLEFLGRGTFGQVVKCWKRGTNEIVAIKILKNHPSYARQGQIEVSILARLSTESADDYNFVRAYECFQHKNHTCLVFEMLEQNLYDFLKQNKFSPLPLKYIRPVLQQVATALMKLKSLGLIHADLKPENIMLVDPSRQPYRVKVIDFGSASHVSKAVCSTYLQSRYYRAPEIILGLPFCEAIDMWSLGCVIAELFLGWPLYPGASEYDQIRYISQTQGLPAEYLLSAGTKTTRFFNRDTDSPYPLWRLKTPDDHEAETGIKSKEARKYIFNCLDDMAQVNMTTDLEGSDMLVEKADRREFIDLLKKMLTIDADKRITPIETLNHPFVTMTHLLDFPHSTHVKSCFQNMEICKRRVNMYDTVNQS

CAMKK2, construct: Full length (from UniProt Q96RR4)
relative phosphorylation
Settings	at +1	at +2	at +3	at +4	at -1	at -2	at -3	at -4	at -5
A fixed	1.16	0.999	0.931	0.783	1.27	0.476	1.17	0.993	1.31
D fixed	0.612	1.03	1.09	1.14	1.17	0.349	0.289	0.949	1.02
E fixed	0.647	0.701	0.995	0.774	1.24	0.313	0.317	0.905	0.843
F fixed	0.787	0.602	0.861	1.12	0.671	1.91	1.44	0.939	0.93
G fixed	0.848	1.24	1.36	1.09	0.731	0.434	0.846	1.11	1.29
H fixed	0.46	1.21	0.888	1.1	0.934	0.748	1.23	1.15	1.09
I fixed	1.27	0.734	0.702	0.589	0.46	0.558	0.672	0.481	0.529
K fixed	1.03	1.04	0.971	1.18	1.6	0.629	0.567	0.887	1.02
L fixed	1.1	0.786	0.783	0.953	0.974	2.57	0.981	0.762	0.561
M fixed	1.92	1.14	0.834	0.979	1.2	2.46	1.65	1.04	0.887
N fixed	1.02	1.4	1.22	0.991	1.15	0.594	0.66	0.95	0.917
P fixed	0.328	1.26	1.61	1.64	0.268	0.363	1.48	0.931	1.29
Q fixed	1.07	0.937	1.05	1.09	1.6	0.727	1.09	1.05	1.08
R fixed	1.18	1.32	1.04	0.852	1.65	0.885	0.856	1.11	1.21
V fixed	1.19	0.93	0.706	0.884	0.601	0.548	0.953	0.583	0.753
W fixed	1.22	0.742	0.971	0.981	0.693	0.873	1.48	1.79	1.25
Y fixed	1.18	0.927	0.988	0.861	0.786	2.56	1.32	1.37	1.02
pThr fixed	0.769	0.87	1.03	1.14	0.432	0.493	0.711	0.711	0.884
pTyr fixed	0.827	0.75	1.43	1.09	0.973	0.634	0.525	0.831	0.776

HIPK2, construct: aa153-564 (from UniProt Q9H2X6)
relative phosphorylation
Settings	at +1	at +2	at +3	at +4	at -1	at -2	at -3	at -4	at -5
A fixed	0.477	1.23	0.93	0.869	1.32	2.32	0.857	1.07	1.08
D fixed	0.109	0.923	0.689	0.906	0.483	0.281	0.703	0.956	0.993
E fixed	0.125	0.509	0.582	0.75	0.514	0.284	0.592	1	0.893
F fixed	0.151	1.2	0.766	1.12	0.482	0.32	0.261	0.575	0.814
G fixed	0.628	1.64	1.4	1.16	1.16	0.943	1.33	1.24	1.09
H fixed	0.224	1.34	1.08	1.01	0.948	0.387	0.658	0.899	1.09
I fixed	0.225	0.631	0.649	0.95	0.397	0.66	0.279	0.562	0.686
K fixed	0.284	1.2	0.738	1.04	1.98	0.671	1.2	1.05	1.1
L fixed	0.189	0.634	0.803	0.839	0.578	0.621	0.361	0.69	0.754
M fixed	0.183	0.765	0.742	0.901	0.782	0.543	0.326	0.72	0.652
N fixed	0.235	1.02	0.953	0.878	0.843	0.739	0.784	0.887	0.971
P fixed	11.5	1.46	3.51	1.06	1.95	4.16	1.06	2.04	1.49
Q fixed	0.251	0.766	0.971	1.11	1.35	0.569	0.821	0.977	0.993
R fixed	1.6	1.22	0.914	0.993	2.33	2.9	6.74	2.38	1.72
V fixed	0.481	0.722	0.677	1.01	0.65	0.949	0.34	0.574	0.716
W fixed	0.161	0.951	0.852	1.3	0.624	0.304	0.348	0.655	0.782
Y fixed	0.163	0.79	0.741	1.11	0.604	0.347	0.35	0.727	1.16
pThr fixed	0.283	0.441	0.615	0.816	0.423	1.04	0.734	1.27	1.23
pTyr fixed	0.251	0.431	0.989	1.15	0.614	0.375	0.628	1.01	1.19

CAMKK1, construct: aa124-411 (from UniProt Q8N5S9)
relative phosphorylation
Settings	at +1	at +2	at +3	at +4	at -1	at -2	at -3	at -4	at -5
A fixed	0.901	0.973	0.903	0.897	1.05	0.46	1.22	1.1	1.33
D fixed	0.614	0.968	0.958	1.06	1.05	0.445	0.426	1.26	1.18
E fixed	0.644	0.723	0.891	1.05	1.31	0.348	0.461	1.18	1.06
F fixed	0.858	0.802	0.751	0.774	0.629	1.59	1.36	1.02	0.853
G fixed	0.83	0.897	1.14	1.2	0.7	0.458	0.757	1.18	1.32
H fixed	1.31	1.44	1.24	1.12	1.06	0.949	1.12	1.06	1.05
I fixed	1.06	0.725	0.597	0.612	0.645	0.756	1.18	0.675	0.687
K fixed	0.907	0.997	1.27	1.18	1.05	0.463	0.443	0.806	1.18
L fixed	1.12	0.703	0.657	0.76	1.14	2.71	1.29	0.811	0.605
M fixed	1.37	0.901	0.797	0.845	1.27	2.52	2.16	0.82	0.901
N fixed	1.21	1.11	1.2	1.25	1.21	0.811	0.832	1.03	1.04
P fixed	0.157	0.927	1.2	1.29	0.192	0.229	1.05	0.96	1.21
Q fixed	1.33	1.08	1.15	1.14	1.51	0.696	0.872	0.955	0.863
R fixed	1.31	1.57	1.49	1.23	1.75	0.633	0.583	0.791	1.13
V fixed	1.06	0.865	0.702	0.628	0.696	0.594	1.04	0.83	0.786
W fixed	1.01	0.968	0.975	1.13	0.718	0.668	1.03	1.59	0.906
Y fixed	1.31	1.36	1.08	0.848	1.02	2.67	1.18	0.926	0.903
pThr fixed	0.793	0.982	0.885	0.852	0.508	0.624	0.842	0.969	0.9
pTyr fixed	0.907	0.947	1.01	0.925	1.28	0.668	0.726	0.838	0.979

MAPKAPK2, construct: Full length (from UniProt P49137)
relative phosphorylation
Settings	at +1	at +2	at +3	at +4	at -1	at -2	at -3	at -4	at -5
A fixed	0.699	0.907	0.885	0.974	0.808	1.19	0.604	1.22	0.754
D fixed	0.716	1.92	2.48	1.79	1.12	0.349	0.262	0.669	0.268
E fixed	1.27	1.5	2.42	1.7	0.802	0.749	0.302	1.17	0.22
F fixed	0.729	0.59	0.436	0.561	0.69	0.568	0.212	0.659	1.39
G fixed	0.752	1.47	1.58	1.39	0.733	1.14	0.445	0.999	0.366
H fixed	1.52	1.18	1.1	1.01	1.38	0.778	1.08	1.07	0.67
I fixed	0.928	0.688	0.313	0.575	0.664	0.438	0.111	0.696	1.28
K fixed	0.861	0.655	0.784	0.987	1.2	0.693	1.91	1.75	0.51
L fixed	0.728	0.594	0.432	0.579	0.949	1.04	0.171	0.954	1.65
M fixed	1.27	0.616	0.43	0.598	0.994	1.67	0.275	1.23	1.14
N fixed	1.43	1.4	1.07	1.23	1.49	0.846	0.645	0.843	0.345
P fixed	0.206	1.48	1.75	1.84	1.69	0.655	0.889	0.805	1.42
Q fixed	1.47	1.04	1.17	1.07	1.31	3.73	1.03	1.33	0.941
R fixed	1.36	0.726	0.631	0.755	0.778	1.37	7.97	1.61	1.59
V fixed	1.14	0.885	0.501	0.739	0.87	0.615	0.154	0.725	1.1
W fixed	0.801	0.642	0.5	0.646	0.582	0.586	0.636	0.661	2.38
Y fixed	1.12	0.708	0.521	0.564	0.935	0.577	0.296	0.599	0.983
pThr fixed	1.61	1.04	1.11	1.83	0.519	0.372	0.258	0.504	0.365
pTyr fixed	5.15	2.06	1.63	1.61	1.04	0.397	0.218	0.557	0.646
